Variants at the floor of the assay were thinned out.
B1: TPR 5TU (parent)
chain: GGAUCUUCUCGAUCUAACAAAAAAGACAAAUCUGCCACAAAGCUUGAGAGCAUCUUCGGAUGCAGAGGCGGCAGCCUUCGGUGGCGCGAUAGCGCCAACGUUCUCAACUAUGACACGCAAAACGCGUGCUCCGUUGAAUGGAGUUUAUCAUG

Variants of: B1
Assay: polymerase ribozyme fitness, log enrichment relative to wild type (log ratio); higher = more active; in vitro selection for triplet polymerase activity
Method in brief: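 One round of in vitro selection, in triplicate, was applied to PCR-built, transcribed mutant libraries of each subunit of a heterodimeric triplet polymerase ribozyme. The steps were annealing with a biotinylated primer, partner subunit and triplets, incubation frozen at −7 °C, gel excision of extended constructs, streptavidin-bead capture and RT-PCR. Fitness is the logarithm, base 2, of genotype enrichment over wild-type enrichment from inverse-variance-weighted replicate averages of Illumina-sequenced inputs and outputs, keeping genotypes with ≥10 input reads and ≥1 read per output.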

Point of comparison: C10U A20U G83U, “polymerase ribozyme fitness (log ratio)” value -3.85. Against it:
- G11U A22G U45G U53G G58C C85U C87A C99G A106U G136A A142U — lower, ≤ -4.2
- A12C A19C G58C G62A C63U A97G — lower, ≤ -4.2
- C10A C14G U53A C57A G84A C99U G126A — lower, ≤ -4.2
- G11A — higher, -0.693
- G11U — higher, -0.242
- G11C — higher, -1.36
- U9C A26U C54U G92A — lower, ≤ -4.2
- U9G C14U A29C C35A C87U G92A G94U A98U A137U — lower, ≤ -4.2
- G11A U45A G46C G80C C87A — lower, ≤ -4.2
- G11U G83A C96U — higher, -0.589
- A12C A22G C54A G70U G100A C116G G117A U135G — lower, ≤ -4.2
- U9G U56G G84U C87A U90G U109G U130C U139A — lower, ≤ -4.2
- U9C A19G A30G C35A U56A C87G G117U U148C — lower, ≤ -4.2
- C10G A26U C43A G94C U127C G143U — lower, ≤ -4.2
- C10G A23U U56A C93U — lower, ≤ -4.2
- A12C A52G C93U U101C C105U — higher, -2.54
- G11C C85U A97U G124C — higher, -3.4
- C10U C125U — higher, -3.3
- G11U A22G G59U G65C A98U U127C C129G — lower, ≤ -4.2
- C10G A37G C51G A107G U145C U148G — lower, ≤ -4.2
- C10G G92A U111G A150C — lower, ≤ -4.2
- G11C A30G U53A G58A C95A — lower, ≤ -4.2
- C10U A37U G50A A73U A122G — lower, ≤ -4.2
- G11U C18G A21C U31C C57U A91G A113C G143U — lower, ≤ -4.2
- C10U A17C — higher, -2.07
- C10U A17U — higher, -3.22
- C10A G25A A29U A89C G92U C108U A113U G117C — lower, ≤ -4.2
- C10U C32U C35U A49C C51A C87A G141A — lower, ≤ -4.2
- G11C C32G C54U C57U C79G C87G A110G — lower, ≤ -4.2
- G11A G59C — higher, -0.989
- C10U A20U U44A C79U C87A — lower, ≤ -4.2
- G11A A30G A41C A91U C95G G140C — lower, ≤ -4.2
- U9C G11U A16G C51G C93G G112U — lower, ≤ -4.2
- C10G C87A C93U — lower, ≤ -4.2
- U9C C57U G83A A119U G124C — lower, ≤ -4.2
- C10G C63G C79U C85G C99A A107G A121U G143A — lower, ≤ -4.2
- U9G A19U — lower, -4.09
- C10U G59C C85A C116G A138C — lower, ≤ -4.2
- C10A A17C C35U G59A A122U U146A — lower, ≤ -4.2
- G11U C27G C35A C95U C131G G152U — within 0.2 log units, -3.68
- C10G C14G G25C G59U C95U A110G — lower, ≤ -4.2
- G11C A19C G70U G86A A89U A106G G136C — lower, ≤ -4.2
- C10A C51G A52C G59A C75G — lower, ≤ -4.2
- C10G C93A A97U C116U — lower, ≤ -4.2
- A12C A119G — higher, -0.0231
- G11C G59A A60C — higher, -3.14
- C10G C57A C108A A115G U134A G136U — lower, ≤ -4.2
- C10U C14G U15G A29C C38U G58A A91G U127G C149U — lower, ≤ -4.2
- C10U A17G A26U G46C U55A C85U A106U G126A G133C — lower, ≤ -4.2
- C10G A49G G59A A60U G88U A97U — lower, ≤ -4.2
- G11A C123U A142U — higher, -1.6
- A12C A37C G50A C79G A98G — lower, ≤ -4.2
- U9C A52C G67A G74U G86U C93U A115G — lower, ≤ -4.2
- U9A U13G A29C U82G G84U A91G G94U G128C G133A A138U — lower, ≤ -4.2
- A12C C85U — higher, -1.44
- C10G A107C — lower, ≤ -4.2
- G11U G70U G83C A122G G143C — lower, ≤ -4.2
- C10A A40U G67U G81C C149G — lower, ≤ -4.2
- C10G G84U — within 0.2 log units, -3.9
- G11C U56A C75U U145A — higher, -1.61
- U9G A73G — lower, -4.11
- C10A A20U A21C A49C C51U C79U A110G — lower, ≤ -4.2
- A12C A22C U82A G126A — higher, 0.264
- C10U A12U A21C A39U G71A A106C C125G G141A — lower, ≤ -4.2
- U9C A21U A28C G50C G94U U102C — lower, -4.16
- C10A A20G C38A U55A A60C — lower, ≤ -4.2
- C10U A39C U77A G84A C95U A120U — lower, ≤ -4.2
- C10U U13C A52U C96A — higher, -3.64
- C10U C96U — higher, -2.51
- C10U C96G — within 0.2 log units, -3.82
- G11U A40U G84A C132A G143C — lower, ≤ -4.2
- A12C A66C — lower, ≤ -4.2
- U9C C96U A110G — lower, ≤ -4.2
- G11U A30U C95U C99U — lower, ≤ -4.2
- G11C U33A U44C C76A A89U C95U A122C C123U G133A — lower, ≤ -4.2
- C10U A89U C95U — lower, -4.15
- G11C A17U A23U C38U C95U A138G — lower, ≤ -4.2
- U9G C14G A24G U55A U139A — lower, ≤ -4.2
- U9G G42C G58C C95U — lower, ≤ -4.2
- G11U C38G G46A — higher, -2.87
- C10G U77C U90A A119G A137G — lower, ≤ -4.2
- G11A C85U U130G — lower, ≤ -4.2
- G11U C57U G58A U104G C105U — within 0.2 log units, -3.72
